Measured values reported in US11124574B2, “Specific photoimmuno-theranostics for detection and elimination of skin cancer cells” (University of Cape Town, priority 2015, dated 2021).

Key:
[1] = test system: A431, IGR-1, IGR-39 and A2058; experiment: Apo-ONE Caspase-3/7 apoptosis assay, controls; format: cell-based, human; conditions: photosensitizer or fusion protein alone
Description: (§1) In addition to the in vitro imaging specificity, the phototoxic activity of scFv-SNAP-IR700 and free IR700 were also investigated using cell proliferation and cell apoptosis assays as described previously (9). Briefly, 2×10^4 cells were seeded in 96-well plates and incubated overnight at 37° C. The cells were treated with different concentrations (0, 12.5, 25, 50, 100, 200 and 400) nM of scFv-425-SNAP, IR700 or equivalent concentration of scFv-SNAP-425-IR700 for 3 h at 37° C. in the dark. Toxic control cultures were incubated with 500 μg/mL zeocin instead of the photosensitizer.
(§2) Before light irradiation, cells were washed three times with PBS and fresh phenol red free culture media were added to the cells. […]
(§3) Next it was determined whether scFv-SNAP-IR700 has the ability to induce apoptosis using the Apo-ONE® Homogeneous Caspase-3/7 assay (Promega, Mannheim, Germany). […] The activities of caspase-3 and -7 enzymes were analyzed in cell lysates by measuring the fluorescence signal at 485 nm excitation wavelength and 535 nm emission wavelength using the ELISA plate reader ELx808 (Bio-TEK, Bad Friedrichschall, Germany).

[2] = test system: A431, IGR-1, IGR-39 and A2058; experiment: XTT cell viability assay, controls on all cell lines; format: cell-based, human; conditions: for cell viability (XTT), controls: all cell lines, treated with NIR-light
Description: (§4) The human skin epidermoid carcinoma cell line A431 (ATCC: CRL-259), human embryonic kidney (HEK-293T) cell line (ATCC: CRL-11268) and the human melanoma cell line A2058 (ATCC: CRL-11147) were cultured in RPMI-1640 medium. The human melanoma cell line IGR-39 (DSMZ: ACC 239) and IGR-1 (DSMZ: ACC-236) were cultured in DEME medium. All media were supplemented with 2 mM L-glutamine, 10% (v/v) fetal bovine serum (FBS) and 100 U/mL penicillin-streptomycin; the cells were incubated at 37° C. in a 5% CO2 atm. All media and additives were purchased from Life Technologies, Darmstadt, Germany.
as §1
Before light irradiation, cells were washed three times with PBS and fresh phenol red free culture media were added to the cells. Light treatment was performed with a Hydrosun® Typ 750 radiator with a water-containing cuvette and an orange filter OG590, with 140 mW/cm^2, dose: 25 J/cm^2a VIS, 76 J/cm^2 wIRA, exposure time: 15 min, and a spectrum in the range of 580-1400 nm (Hydrosun Medizintechnik GmbH, Mülhelm, Germany). […]
(§5) Cell viability was measured using the cell proliferation kit II (XTT®) (Roche, Mannheim Germany) according to the manufacturer's instructions. […] Cell viability was determined colorimetrically by monitoring the reduction of XTT® to formazan at 450 nm absorbance wavelength and 630 nm reference wavelength using the ELx808 absorbance micro-plate reader (BioTek Instruments GmbH, Bad Friedrichshall, Germany).

[3] = test system: EGFR low expressing cell line (A2058); experiment: Confocal microscopy binding and internalization; format: cell-based, human; conditions: same conditions
Description: (§6) To further monitor the targeted activity of fusion protein, Opera® High Content Screening System (PerkinElmer, Rodgau, Germany) was used to determine the binding and internalization properties of labeled fusion proteins on skin cancer cells. Cells were prepared as described for flow cytometry analysis. Binding activity was analyzed by incubating the cells with labeled fusion proteins for 30 min on ice, while receptor mediate internalization activities was monitored by incubating the cells with the labeled fusion proteins for 2 h at 37° C.

[4] = test system: EGFR-expressing cell lines (A431, IGR1 and IGR-39); experiment: Confocal microscopy binding and internalization; format: cell-based, human
Description: as §6

[5] = test system: EGFR^+ skin carcinoma cell lines (A431, IGR1 and IGR-39); experiment: Flow cytometry binding analysis; design: species or system human; conditions: EGFR+ skin cancer cells; 30 min on ice
Description: Flow cytometry analysis was performed to determine the binding properties of labeled scFv-SNAP-tag fusion protein against skin cancer cell lines. Approximately 4×10^5 cells each of the EGFR-positive skin cancer cell lines IGR-39, IGR-1 and A431 as well as of the EGFR low expressing cell line A2058 were incubated with 0.5 μg of labeled proteins for 30 min on ice. After washing the cells twice with 1.8 mL of PBS in a conventional cell washer, fluorescence signals were detected using a FACSCalibur® device and CellQuest® software (Becton & Dickinson, Heidelberg, Germany) using a 633 nm laser source.

[6] = test system: EGFR low expressing cells (A2058); experiment: Apo-ONE Caspase-3/7 apoptosis assay; format: cell-based, human; conditions: same conditions
Description: as §1, §2, §3

[7] = test system: cells expressing EGFR (A431, IGR-1, IGR-39); experiment: Apo-ONE Caspase-3/7 apoptosis assay; format: cell-based, human; conditions: all cells expressing EGFR; with light
Description: as §1, §2, §3

[8] = test system: A2058 cells (EGFR low expressing); experiment: XTT cell viability assay after light treatment; format: cell-based, human; conditions: same protocol with light, up to 400 nM
Description: as §4
(§7) In addition to the in vitro imaging specificity, the phototoxic activity of scFv-SNAP-IR700 and free IR700 were also investigated using cell proliferation and cell apoptosis assays as described previously (9). Briefly, 2×10^4 cells were seeded in 96-well plates and incubated overnight at 37° C. […]
as §5

[9] = test system: EGFR-expressing skin cancer cell lines (A431, IGR-1, IGR-39); experiment: XTT cell viability assay, EGFR-expressing lines together; format: cell-based, human; conditions: with light 580-1400 nm; 0-400 nM
Description: as §4, §7, §5

## C[Si](C)(CCC[N+](CCCS(=O)(=O)[O-])(CCCS(=O)(=O)[O-])CCCS(=O)(=O)[O-])O[Si]1(O[Si](C)(C)CCC[N+](CCCS(=O)(=O)[O-])(CCCS(=O)(=O)[O-])CCCS(=O)(=O)[O-])n2c3c4ccccc4c2N=C2N=C(N=c4c5ccccc5c(n41)=NC1=NC(=N3)c3ccccc31)c1cccc(OCCCOC(=O)NCCCCCC(=O)ON3C(=O)CCC3=O)c12.[Na+].[Na+].[Na+].[Na+] (stereo not shown) [IR700, IRDye®700DX N-hydroxysuccinimide ester, reference compound]
[1]
  caspase activities, controls: no significant elevation of caspase activities
[2]
  cell viability (XTT), controls: unaffected

## scFv-425-SNAP-tag: unlabeled fusion protein of anti-EGFR scFv-425 (SEQ ID No. 1) and SNAP-tag (SEQ ID No. 2)
[1]
  caspase activities, controls: no significant elevation of caspase activities
[2]
  cell viability (XTT), controls: unaffected

B1: scFv-425-SNAP-647: scFv-425-SNAP-tag fusion protein conjugated with BG-Alexa-647 dye, used for flow cytometry and confocal microscopy (conjugate)
scFv: MAQVQLQQSGAELVKPGASVKLSCKASGYTFTSHWMHWVKQRAGQGLEWIGEFNPSNGRTNYNEKFKSKATLTVDKSSSTAYMQLSSLTSEDSAVYYCASRDYDYDGRYFDYWGQGTTVTVSSGGGGSGGGGSGGGGSDIELTQSPAIMSASPGEKVTMTCSASSSVTYMYWYQQKPGSSPRLLIYDTSNLASGVPVRFSGSGSGTSYSLTISRMEAEDAATYYCQQWSSHIFTFGSGTELEIKRMDKDCEMKRTTLDSPLGKLELSGCEQGLHEIKLLGKGTSAADAVEVPAPAAVLGGPEPLMQATAWLNAYFHQPEAIEEFPVPALHHPVFQQESFTRQVLWKLLKVVKFGEVISYQQLAALAGNPAATAAVKTALSGNPVPILIPCHRVVSSSGAVGGYEGGLAVKEWLLAHEGHRLGKP
modifications: left off: small tags and cut ends
[3]
  binding/internalization signal (confocal): no signal was detected
[4]; 30 min incubation at 4° C.
  binding, cell membrane staining (confocal): homogeneous cell membrane staining
[4]; max. 2 h of incubation at 37° C.
  internalization (confocal): exclusively taken up
[5]
  labeling of cells (flow cytometry): rapid and efficient labeling

B2: scFv-425-SNAP-IR700: IR700 photosensitizer (via BG-PEG24 linker) conjugated to anti-EGFR single-chain variable fragment scFv-425 fused to SNAP-tag (conjugate)
scFv: B1 scFv
modifications: left off: small tags and cut ends
notes: IR700 photosensitizer (via BG-PEG24 linker) conjugated to anti-EGFR single-chain variable fragment scFv-425 fused to SNAP-tag
[6]
  caspase-3 and caspase-7 activities (apoptosis): did not have a negative impact
[7]
  caspase-3 and caspase-7 activities (apoptosis): triggers apoptosis
[8]
  cell viability (XTT): no significant reduction in cell viability
[2]; without any light treatment
  cell viability (XTT) without light: no toxic effects
[9]
  viability of EGFR+ cells (XTT): reduced significantly in a concentration-dependent manner
